Like-named read-outs stand apart in the source and are kept apart here. Where no end group is shown, it is not given here. The star is where a group is joined. C16 diacid = O=C(O)CCCCCCCCCCCCCCC(=O)*
T1: human GIP receptor (human, UniProt P48546 22-466)
T1 sequence (looked up): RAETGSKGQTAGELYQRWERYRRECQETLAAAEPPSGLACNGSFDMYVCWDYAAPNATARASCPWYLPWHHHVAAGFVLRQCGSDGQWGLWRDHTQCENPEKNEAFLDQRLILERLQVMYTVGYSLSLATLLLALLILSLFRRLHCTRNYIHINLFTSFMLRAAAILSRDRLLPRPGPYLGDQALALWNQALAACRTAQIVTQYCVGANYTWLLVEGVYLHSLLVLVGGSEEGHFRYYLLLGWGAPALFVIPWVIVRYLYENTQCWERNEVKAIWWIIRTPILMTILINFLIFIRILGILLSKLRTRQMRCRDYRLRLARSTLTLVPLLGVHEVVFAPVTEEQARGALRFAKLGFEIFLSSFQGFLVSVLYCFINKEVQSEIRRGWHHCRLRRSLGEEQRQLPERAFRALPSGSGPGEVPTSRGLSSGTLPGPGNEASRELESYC

B1: AT472 (peptide)
peptide: EGTFISDYSIAMDKIK(C16 diacid)QQDFVNWLLAQKGPSS-OH
modifications: N-terminus assumed
SMILES: CC[C@H](C)[C@H](NC(=O)[C@H](CO)NC(=O)[C@H](Cc1ccc(O)cc1)NC(=O)[C@H](CC(=O)O)NC(=O)[C@H](CO)NC(=O)[C@@H](NC(=O)[C@H](Cc1ccccc1)NC(=O)[C@@H](NC(=O)CNC(=O)[C@@H](N)CCC(=O)O)[C@@H](C)O)[C@@H](C)CC)C(=O)N[C@@H](C)C(=O)N[C@@H](CCSC)C(=O)N[C@@H](CC(=O)O)C(=O)N[C@@H](CCCCN)C(=O)N[C@H](C(=O)N[C@@H](CCCCNC(=O)CCCCCCCCCCCCCCC(=O)O)C(=O)N[C@@H](CCC(N)=O)C(=O)N[C@@H](CCC(N)=O)C(=O)N[C@@H](CC(=O)O)C(=O)N[C@@H](Cc1ccccc1)C(=O)N[C@H](C(=O)N[C@@H](CC(N)=O)C(=O)N[C@@H](Cc1c[nH]c2ccccc12)C(=O)N[C@@H](CC(C)C)C(=O)N[C@@H](CC(C)C)C(=O)N[C@@H](C)C(=O)N[C@@H](CCC(N)=O)C(=O)N[C@@H](CCCCN)C(=O)NCC(=O)N1CCC[C@H]1C(=O)N[C@@H](CO)C(=O)N[C@@H](CO)C(=O)O)C(C)C)[C@@H](C)CC
B2: AT448 (peptide)
peptide: EGTFISDYSIAMDKIK(C16 diacid)QQDFVNWLLAQKGK-OH
modifications: N-terminus assumed
SMILES: CC[C@H](C)[C@H](NC(=O)[C@H](CO)NC(=O)[C@H](Cc1ccc(O)cc1)NC(=O)[C@H](CC(=O)O)NC(=O)[C@H](CO)NC(=O)[C@@H](NC(=O)[C@H](Cc1ccccc1)NC(=O)[C@@H](NC(=O)CNC(=O)[C@@H](N)CCC(=O)O)[C@@H](C)O)[C@@H](C)CC)C(=O)N[C@@H](C)C(=O)N[C@@H](CCSC)C(=O)N[C@@H](CC(=O)O)C(=O)N[C@@H](CCCCN)C(=O)N[C@H](C(=O)N[C@@H](CCCCNC(=O)CCCCCCCCCCCCCCC(=O)O)C(=O)N[C@@H](CCC(N)=O)C(=O)N[C@@H](CCC(N)=O)C(=O)N[C@@H](CC(=O)O)C(=O)N[C@@H](Cc1ccccc1)C(=O)N[C@H](C(=O)N[C@@H](CC(N)=O)C(=O)N[C@@H](Cc1c[nH]c2ccccc12)C(=O)N[C@@H](CC(C)C)C(=O)N[C@@H](CC(C)C)C(=O)N[C@@H](C)C(=O)N[C@@H](CCC(N)=O)C(=O)N[C@@H](CCCCN)C(=O)NCC(=O)N[C@@H](CCCCN)C(=O)O)C(C)C)[C@@H](C)CC
B3: AT473 (peptide)
peptide: EGTFISDYSIAMDKIK(C16 diacid)QQDFVNWLLAQKGPS-OH
modifications: N-terminus assumed
SMILES: CC[C@H](C)[C@H](NC(=O)[C@H](CO)NC(=O)[C@H](Cc1ccc(O)cc1)NC(=O)[C@H](CC(=O)O)NC(=O)[C@H](CO)NC(=O)[C@@H](NC(=O)[C@H](Cc1ccccc1)NC(=O)[C@@H](NC(=O)CNC(=O)[C@@H](N)CCC(=O)O)[C@@H](C)O)[C@@H](C)CC)C(=O)N[C@@H](C)C(=O)N[C@@H](CCSC)C(=O)N[C@@H](CC(=O)O)C(=O)N[C@@H](CCCCN)C(=O)N[C@H](C(=O)N[C@@H](CCCCNC(=O)CCCCCCCCCCCCCCC(=O)O)C(=O)N[C@@H](CCC(N)=O)C(=O)N[C@@H](CCC(N)=O)C(=O)N[C@@H](CC(=O)O)C(=O)N[C@@H](Cc1ccccc1)C(=O)N[C@H](C(=O)N[C@@H](CC(N)=O)C(=O)N[C@@H](Cc1c[nH]c2ccccc12)C(=O)N[C@@H](CC(C)C)C(=O)N[C@@H](CC(C)C)C(=O)N[C@@H](C)C(=O)N[C@@H](CCC(N)=O)C(=O)N[C@@H](CCCCN)C(=O)NCC(=O)N1CCC[C@H]1C(=O)N[C@@H](CO)C(=O)O)C(C)C)[C@@H](C)CC
B4: AT447 (peptide)
peptide: EGTFISDYSIAMDKIK(C16 diacid)QQDFVNWLLAQKG-OH
modifications: N-terminus assumed
SMILES: CC[C@H](C)[C@H](NC(=O)[C@H](CO)NC(=O)[C@H](Cc1ccc(O)cc1)NC(=O)[C@H](CC(=O)O)NC(=O)[C@H](CO)NC(=O)[C@@H](NC(=O)[C@H](Cc1ccccc1)NC(=O)[C@@H](NC(=O)CNC(=O)[C@@H](N)CCC(=O)O)[C@@H](C)O)[C@@H](C)CC)C(=O)N[C@@H](C)C(=O)N[C@@H](CCSC)C(=O)N[C@@H](CC(=O)O)C(=O)N[C@@H](CCCCN)C(=O)N[C@H](C(=O)N[C@@H](CCCCNC(=O)CCCCCCCCCCCCCCC(=O)O)C(=O)N[C@@H](CCC(N)=O)C(=O)N[C@@H](CCC(N)=O)C(=O)N[C@@H](CC(=O)O)C(=O)N[C@@H](Cc1ccccc1)C(=O)N[C@H](C(=O)N[C@@H](CC(N)=O)C(=O)N[C@@H](Cc1c[nH]c2ccccc12)C(=O)N[C@@H](CC(C)C)C(=O)N[C@@H](CC(C)C)C(=O)N[C@@H](C)C(=O)N[C@@H](CCC(N)=O)C(=O)N[C@@H](CCCCN)C(=O)NCC(=O)O)C(C)C)[C@@H](C)CC
B5: AT474 (peptide)
peptide: EGTFISDYSIAMDKIK(C16 diacid)QQDFVNWLLAQKGP-OH
modifications: N-terminus assumed
SMILES: CC[C@H](C)[C@H](NC(=O)[C@H](CO)NC(=O)[C@H](Cc1ccc(O)cc1)NC(=O)[C@H](CC(=O)O)NC(=O)[C@H](CO)NC(=O)[C@@H](NC(=O)[C@H](Cc1ccccc1)NC(=O)[C@@H](NC(=O)CNC(=O)[C@@H](N)CCC(=O)O)[C@@H](C)O)[C@@H](C)CC)C(=O)N[C@@H](C)C(=O)N[C@@H](CCSC)C(=O)N[C@@H](CC(=O)O)C(=O)N[C@@H](CCCCN)C(=O)N[C@H](C(=O)N[C@@H](CCCCNC(=O)CCCCCCCCCCCCCCC(=O)O)C(=O)N[C@@H](CCC(N)=O)C(=O)N[C@@H](CCC(N)=O)C(=O)N[C@@H](CC(=O)O)C(=O)N[C@@H](Cc1ccccc1)C(=O)N[C@H](C(=O)N[C@@H](CC(N)=O)C(=O)N[C@@H](Cc1c[nH]c2ccccc12)C(=O)N[C@@H](CC(C)C)C(=O)N[C@@H](CC(C)C)C(=O)N[C@@H](C)C(=O)N[C@@H](CCC(N)=O)C(=O)N[C@@H](CCCCN)C(=O)NCC(=O)N1CCC[C@H]1C(=O)O)C(C)C)[C@@H](C)CC
B6: AT471 (peptide)
peptide: EGTFISDYSIAMDKIK(C16 diacid)QQDFVNWLLAQKGPSSG-OH
modifications: N-terminus assumed
SMILES: CC[C@H](C)[C@H](NC(=O)[C@H](CO)NC(=O)[C@H](Cc1ccc(O)cc1)NC(=O)[C@H](CC(=O)O)NC(=O)[C@H](CO)NC(=O)[C@@H](NC(=O)[C@H](Cc1ccccc1)NC(=O)[C@@H](NC(=O)CNC(=O)[C@@H](N)CCC(=O)O)[C@@H](C)O)[C@@H](C)CC)C(=O)N[C@@H](C)C(=O)N[C@@H](CCSC)C(=O)N[C@@H](CC(=O)O)C(=O)N[C@@H](CCCCN)C(=O)N[C@H](C(=O)N[C@@H](CCCCNC(=O)CCCCCCCCCCCCCCC(=O)O)C(=O)N[C@@H](CCC(N)=O)C(=O)N[C@@H](CCC(N)=O)C(=O)N[C@@H](CC(=O)O)C(=O)N[C@@H](Cc1ccccc1)C(=O)N[C@H](C(=O)N[C@@H](CC(N)=O)C(=O)N[C@@H](Cc1c[nH]c2ccccc12)C(=O)N[C@@H](CC(C)C)C(=O)N[C@@H](CC(C)C)C(=O)N[C@@H](C)C(=O)N[C@@H](CCC(N)=O)C(=O)N[C@@H](CCCCN)C(=O)NCC(=O)N1CCC[C@H]1C(=O)N[C@@H](CO)C(=O)N[C@@H](CO)C(=O)NCC(=O)O)C(C)C)[C@@H](C)CC

Columns and labels:
human GIP receptor [1] = biological target: T1, human GIP receptor; assay: cell-based or functional assay
human GIP receptor [2] = biological target: T1, human GIP receptor; assay: cell-based or functional assay; remark: listed apart in the source

Binder | cAMP agonism % Emax (human GIP receptor [1]) [%] | cAMP antagonism (human GIP receptor [1]) [nM] | cAMP antagonism % inhib (human GIP receptor [1]) [%] | cAMP antagonism pIC50 (human GIP receptor [1]) | cAMP antagonism (human GIP receptor [2]) [nM] | cAMP antagonism % inhib (human GIP receptor [2]) [%] | cAMP antagonism log (human GIP receptor [2]) [log M] | cAMP agonism Emax (human GIP receptor [2])
B1 | 0 | 7.94 | 90 | 8.1 | 15 | 100 | -7.8 | –
B2 | 0 | 1.36 | 96 | 8.9 | 6 | 77 | -8.2 | 6.2
B3 | 0 | 2.93 | 88 | 8.5 | 26 | 100 | -7.6 | –
B4 | 0 | 11.9 | 93 | 7.9 | 9 | 82 | -8.1 | 4.2
B5 | 0 | 13.6 | 86 | 7.9 | 4 | 100 | -8.4 | 5.9
B6 | 0 | 6.81 | 87 | 8.2 | 11 | 100 | -7.9 | –

Source: patent US20220298218A1 (ANTAG THERAPEUTICS, published 2022)
